Target: Thermotoga maritima SecYEG complex, Se-Met derivatized (Thermotoga maritima) (UniProt Q9X1I9)
Assay: crystal structure

Thermotoga maritima SecYEG complex, Se-Met derivatized (Thermotoga maritima), sequence (Q9X1I9 whole entry, chain 1 of 3): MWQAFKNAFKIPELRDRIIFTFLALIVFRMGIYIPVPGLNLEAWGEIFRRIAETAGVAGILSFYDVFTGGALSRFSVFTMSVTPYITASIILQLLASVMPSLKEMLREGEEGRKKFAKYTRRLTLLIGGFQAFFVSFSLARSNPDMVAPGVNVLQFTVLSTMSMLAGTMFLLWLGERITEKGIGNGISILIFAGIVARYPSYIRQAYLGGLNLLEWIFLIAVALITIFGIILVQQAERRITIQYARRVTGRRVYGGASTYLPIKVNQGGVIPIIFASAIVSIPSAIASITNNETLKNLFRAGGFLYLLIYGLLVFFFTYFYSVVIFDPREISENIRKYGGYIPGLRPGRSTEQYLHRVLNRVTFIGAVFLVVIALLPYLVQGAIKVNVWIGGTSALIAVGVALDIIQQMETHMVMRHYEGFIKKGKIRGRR
Thermotoga maritima SecYEG complex, Se-Met derivatized (Thermotoga maritima), sequence (P35874 whole entry, chain 2 of 3, further chain): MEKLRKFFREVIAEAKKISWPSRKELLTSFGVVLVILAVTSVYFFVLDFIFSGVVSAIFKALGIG
Thermotoga maritima SecYEG complex, Se-Met derivatized (Thermotoga maritima), sequence (Q9WYU9 whole entry, chain 3 of 3, further chain): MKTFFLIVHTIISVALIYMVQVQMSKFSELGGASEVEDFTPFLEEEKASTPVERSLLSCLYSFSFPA

stoichiometry N (SecA per SecY complex): 1
Substance: Thermotoga maritima SecA (from UniProt Q9X1R4 1-871) (enzyme)
